Patent US20220135638A1 (Takeda / Millennium, published 2022)
Numbered stars: 1 amine (or outer) side, 2 acyl side, 3 side chain; on linkers, the order of the positions; unused ones are H or OH. Square brackets hold non-standard residues; d marks the D form. Primed or numbered codes have the meaning given here. Side chains are listed from the residue outwards. Ends that are not written are not given here. * marks the point of attachment. C20 diacid = O=C(O)CCCCCCCCCCCCCCCCCCC(=O)*; C18 diacid = O=C(O)CCCCCCCCCCCCCCCCC(=O)*; C16 diacid = O=C(O)CCCCCCCCCCCCCCC(=O)*; γGlu = O=C(O)[C@H](CCC(=O)[*:2])N[*:1]; Iva = CC[C@](C)(N)C(=O)O; PEG3′ = not defined here; Aib = CC(C)(N)C(=O)O

T1: full-length human GIPR (GenBank NM_000164) with an N-terminal FLAG tag on HEK-293T cells (human), P48546
T1 chain: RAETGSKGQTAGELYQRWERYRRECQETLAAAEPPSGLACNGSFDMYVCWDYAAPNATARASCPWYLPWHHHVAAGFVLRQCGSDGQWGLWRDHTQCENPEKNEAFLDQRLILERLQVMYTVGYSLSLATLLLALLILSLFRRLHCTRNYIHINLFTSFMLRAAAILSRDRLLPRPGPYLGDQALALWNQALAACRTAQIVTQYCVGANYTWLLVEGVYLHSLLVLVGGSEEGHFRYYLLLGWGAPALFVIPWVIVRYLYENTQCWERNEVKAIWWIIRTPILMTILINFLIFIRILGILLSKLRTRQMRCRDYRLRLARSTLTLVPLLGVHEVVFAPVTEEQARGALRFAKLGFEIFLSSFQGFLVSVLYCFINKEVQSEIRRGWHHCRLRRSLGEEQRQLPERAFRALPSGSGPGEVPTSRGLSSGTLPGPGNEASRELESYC

T2: full-length human GLP-1R (GenBank NM_002062) with an N-terminal FLAG tag on HEK-293T cells (human), P43220
T2 chain: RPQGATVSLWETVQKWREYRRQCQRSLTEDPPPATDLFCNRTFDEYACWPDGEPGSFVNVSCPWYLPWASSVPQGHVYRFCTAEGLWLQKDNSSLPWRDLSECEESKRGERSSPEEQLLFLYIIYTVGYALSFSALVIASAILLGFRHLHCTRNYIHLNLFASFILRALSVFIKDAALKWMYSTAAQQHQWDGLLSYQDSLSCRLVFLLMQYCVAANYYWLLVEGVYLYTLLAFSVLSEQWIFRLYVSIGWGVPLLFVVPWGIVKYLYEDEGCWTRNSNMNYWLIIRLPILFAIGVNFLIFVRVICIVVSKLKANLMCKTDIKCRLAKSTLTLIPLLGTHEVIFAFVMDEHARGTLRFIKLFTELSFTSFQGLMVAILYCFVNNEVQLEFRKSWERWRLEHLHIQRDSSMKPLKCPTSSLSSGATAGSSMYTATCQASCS


Target: T1, full-length human GIPR (GenBank …)
Assay: cell-based or functional assay
Y[Aib]EGTFISDYSIALDR[Aib]HQ[Aib]NFVNW[Iva]LAQRPSSGAPPK([PEG3′-γGlu-C16 diacid])S (ends and bridges not checked) [Compound No. 530] gave a GIP EC50(pM) of 0.36 pM. With Y[Aib]EGTFISDYSIALDR[Aib]HQ[Aib]NFVNW[Iva]LAQRPK([PEG3′-γGlu-C20 diacid])SGAPPPS (ends and bridges not checked) [Compound No. 514] the GIP EC50(pM) was 1.14 pM. Y[Aib]EGTFISDYSIALDR[Aib]HQ[Aib]NFVNW[Iva]LAQRPSSGAK([PEG3′-γGlu-C16 diacid])PPS (ends and bridges not checked) [Compound No. 524] showed a GIP EC50(pM) of 1.29 pM. For Y[Aib]EGTFISDYSIALDR[Aib]HQ[Aib]NFVNW[Iva]LAQRPSSGK([PEG3′-γGlu-C18 diacid])PPPS (ends and bridges not checked) [Compound No. 522], the GIP EC50(pM) was 1.51 pM. Y[Aib]EGTFISDYSIALDR[Aib]HQ[Aib]NFVNW[Iva]LAQRPK([PEG3′-γGlu-C16 diacid])SGAPPPSS (ends and bridges not checked) [Compound No. 512] was tested, and the GIP EC50(pM) was 0.53 pM. With Y[Aib]EGTFISDYSIALDR[Aib]HQ[Aib]NFVNW[Iva]LAQRPSSGAPK([PEG3′-PEG3′-γGlu-C20 diacid])PS (ends and bridges not checked) [Compound No. 505] the GIP EC50(pM) was 2.11 pM. Work on Y[Aib]EGTFISDYSIALDR[Aib]HQ[Aib]NFVNW[Iva]LAQRPSSGAPK([PEG3′-γGlu-C16 diacid])PS (ends and bridges not checked) [Compound No. 527] yielded a GIP EC50(pM) of 0.37 pM. In the case of Y[Aib]EGTFISDYSIALDR[Aib]HQ[Aib]NFVNW[Iva]LAQRPSSK([PEG3′-γGlu-C20 diacid])APPPS (ends and bridges not checked) [Compound No. 520], the GIP EC50(pM) is reported as 2.68 pM. For Y[Aib]EGTFISDYSIALDR[Aib]HQ[Aib]NFVNW[Iva]LAQRPSSK([PEG3′-γGlu-C18 diacid])APPPS (ends and bridges not checked) [Compound No. 519], the GIP EC50(pM) was 1.26 pM. Binder Y[Aib]EGTFISDYSIALDR[Aib]HQ[Aib]NFVNW[Iva]LAQRPSSGAK([PEG3′-γGlu-C20 diacid])PPS (ends and bridges not checked) [Compound No. 526] has a GIP EC50(pM) of 1.5 pM. Y[Aib]EGTFISDYSIALDR[Aib]HQ[Aib]NFVNW[Iva]LAQRK([PEG3′-γGlu-C18 diacid])SSGAPPPS (ends and bridges not checked) [Compound No. 510] showed a GIP EC50(pM) of 0.83 pM. Binder Y[Aib]EGTFISDYSIALDR[Aib]HQ[Aib]NFVNW[Iva]LAQRPSSGK([PEG3′-γGlu-C20 diacid])PPPS (ends and bridges not checked) [Compound No. 523] has a GIP EC50(pM) of 2.98 pM. Y[Aib]EGTFISDYSIALDR[Aib]HQ[Aib]NFVNW[Iva]LAQRPSSK([PEG3′-γGlu-C16 diacid])APPPS (ends and bridges not checked) [Compound No. 518] showed a GIP EC50(pM) of 0.61 pM. For Y[Aib]EGTFISDYSIALDR[Aib]HQ[Aib]NFVNW[Iva]LAQRK([PEG3′-γGlu-C16 diacid])SSGAPPPS (ends and bridges not checked) [Compound No. 509], the GIP EC50(pM) was 0.54 pM.

Target: T2, full-length human GLP-1R (GenBank …)
Assay: cell-based or functional assay
With Y[Aib]EGTFISDYSIALDR[Aib]HQ[Aib]NFVNW[Iva]LAQRPSSGAPPK([PEG3′-γGlu-C16 diacid])S (ends and bridges not checked) [Compound No. 530] the GLP EC50 was > 1 µM. With Y[Aib]EGTFISDYSIALDR[Aib]HQ[Aib]NFVNW[Iva]LAQRPK([PEG3′-γGlu-C20 diacid])SGAPPPS (ends and bridges not checked) [Compound No. 514] the GLP EC50 was > 1 µM. With Y[Aib]EGTFISDYSIALDR[Aib]HQ[Aib]NFVNW[Iva]LAQRPSSGAK([PEG3′-γGlu-C16 diacid])PPS (ends and bridges not checked) [Compound No. 524] the GLP EC50 was > 1 µM. In the case of Y[Aib]EGTFISDYSIALDR[Aib]HQ[Aib]NFVNW[Iva]LAQRPSSGK([PEG3′-γGlu-C18 diacid])PPPS (ends and bridges not checked) [Compound No. 522], the GLP EC50 is reported as > 1 µM. Binder Y[Aib]EGTFISDYSIALDR[Aib]HQ[Aib]NFVNW[Iva]LAQRPK([PEG3′-γGlu-C16 diacid])SGAPPPSS (ends and bridges not checked) [Compound No. 512] has a GLP EC50 of 0.126 µM. With Y[Aib]EGTFISDYSIALDR[Aib]HQ[Aib]NFVNW[Iva]LAQRPSSGAPK([PEG3′-PEG3′-γGlu-C20 diacid])PS (ends and bridges not checked) [Compound No. 505] the GLP EC50 was > 1 µM. Y[Aib]EGTFISDYSIALDR[Aib]HQ[Aib]NFVNW[Iva]LAQRPSSGAPK([PEG3′-γGlu-C16 diacid])PS (ends and bridges not checked) [Compound No. 527] was tested, and the GLP EC50 was 0.479 µM. For Y[Aib]EGTFISDYSIALDR[Aib]HQ[Aib]NFVNW[Iva]LAQRPSSK([PEG3′-γGlu-C20 diacid])APPPS (ends and bridges not checked) [Compound No. 520], the GLP EC50 was > 1 µM. In the case of Y[Aib]EGTFISDYSIALDR[Aib]HQ[Aib]NFVNW[Iva]LAQRPSSK([PEG3′-γGlu-C18 diacid])APPPS (ends and bridges not checked) [Compound No. 519], the GLP EC50 is reported as > 1 µM. With Y[Aib]EGTFISDYSIALDR[Aib]HQ[Aib]NFVNW[Iva]LAQRPSSGAK([PEG3′-γGlu-C20 diacid])PPS (ends and bridges not checked) [Compound No. 526] the GLP EC50 was > 1 µM. Y[Aib]EGTFISDYSIALDR[Aib]HQ[Aib]NFVNW[Iva]LAQRK([PEG3′-γGlu-C18 diacid])SSGAPPPS (ends and bridges not checked) [Compound No. 510] was tested, and the GLP EC50 was > 1 µM. With Y[Aib]EGTFISDYSIALDR[Aib]HQ[Aib]NFVNW[Iva]LAQRPSSGK([PEG3′-γGlu-C20 diacid])PPPS (ends and bridges not checked) [Compound No. 523] the GLP EC50 was > 1 µM. With Y[Aib]EGTFISDYSIALDR[Aib]HQ[Aib]NFVNW[Iva]LAQRPSSK([PEG3′-γGlu-C16 diacid])APPPS (ends and bridges not checked) [Compound No. 518] the GLP EC50 was > 1 µM. With Y[Aib]EGTFISDYSIALDR[Aib]HQ[Aib]NFVNW[Iva]LAQRK([PEG3′-γGlu-C16 diacid])SSGAPPPS (ends and bridges not checked) [Compound No. 509] the GLP EC50 was > 1 µM.
